Substrate in this series: N[C@@H](CC(=O)O)C(=O)O
In words: purified protein, by the assay type. Particulars: other: pH 7.4, 30.0 °C.

Here are results for one protein from patent US4614714A.

Procedure: The concentration of each substrate was 10 mM, and the reactions were carried out at pH 7.4 (0.1 M potassium phosphate buffer) and pH 6.0 (0.1 M acetate buffer).
That is, 1 ml of 0.1 M potassium phosphate buffer (pH 7.4) containing 10 mM sodium L-glutamate was charged into an oxygen electrode cell and 10 μl of an enzyme solution was added thereto to measure the oxygen consumption rate. One unit of enzyme was determined as the amount of enzyme which consumes 1μ mol of oxygen per minute at 30° C. in the absence of catalase (unit: hereinafter abbreviated as "U").

B1: novel L-glutamic acid oxidase (Streptomyces sp.) (protein)
chain 1: ANEMTYEQLARELLLVGPAPTNEDLKLRYLDVLIDNGLNPPGPPKRILIVGAGIAGLVAGDLLTRAGHDVTILEANANRVGGRIKTFHAKKGEPSPFADPAQYAEAGAMRLPSFHPLTLALIDKLGLKRRLFFNVDIDPQTGNQDAPVPPVFYKSFKDGKTWTNGAPSPEFKEPDKRNHTWIRTNREQVRRAQYATDPSSINEGFHLTGCETRLTVSDMVNQALEPVRDYYSVKQDDGTRVNKPFKEWLAGWADVVRDFDGYSMGRFLREYAEFSDEAVEAIGTIENMTSRLHLAFFHSFLGRSDIDPRATYWEIEGGSRMLPETLAKDLRDQIVMGQRMVRLEYYDPGRDGHHGELTGPGGPAVAIQTVPEGEPY
chain 2: AATQTWTGDLAIVTIPFSSLRFVKVTPPFSYKKRRAVIETHYDQATKVLLEFSRRWWEFTEADWKRELDAIAPGLYDYYQQWGEDDAEAALALPQSVRNLPTGLLGAHPSVDESRIGEEQVEYYRNSELR
chain 3: GGVRPATNAYGGGSTTDNPNRFMYYPSHPVPGTQGGVVLAAYSWSDDAARWDSFDDAERYGYALENLQSVHGRRIEVFYTGAGQTQSWLRDPYACGEAAVYTPHQMTAFHLDVVRPEGPVYFAGEHVSLKHAWIEGAVETAVRAAIAVNEAPVGDTGVTAAAGRRGAAAATEPMREEALTS
On to B1, for which the Km (as a rule, the concentration of substrate that gives half-maximal velocity) was found to be 29 mM.
